Paper doi:10.1101/2022.01.05.474964 (bioRxiv, 2022)

Biological target: the molecule itself
Test: SEC-MALS

B1: full-length human BicD2 isoform 2 (natural protein, UniProt Q8TD16-2 1-855, looked up)
chain: MSAPSEEEEYARLVMEAQPEWLRAEVKRLSHELAETTREKIQAAEYGLAVLEEKHQLKLQFEELEVDYEAIRSEMEQLKEAFGQAHTNHKKVAADGESREESLIQESASKEQYYVRKVLELQTELKQLRNVLTNTQSENERLASVAQELKEINQNVEIQRGRLRDDIKEYKFREARLLQDYSELEEENISLQKQVSVLRQNQVEFEGLKHEIKRLEEETEYLNSQLEDAIRLKEISERQLEEALETLKTEREQKNSLRKELSHYMSINDSFYTSHLHVSLDGLKFSDDAAEPNNDAEALVNGFEHGGLAKLPLDNKTSTPKKEGLAPPSPSLVSDLLSELNISEIQKLKQQLMQMEREKAGLLATLQDTQKQLEHTRGSLSEQQEKVTRLTENLSALRRLQASKERQTALDNEKDRDSHEDGDYYEVDINGPEILACKYHVAVAEAGELREQLKALRSTHEAREAQHAEEKGRYEAEGQALTEKVSLLEKASRQDRELLARLEKELKKVSDVAGETQGSLSVAQDELVTFSEELANLYHHVCMCNNETPNRVMLDYYREGQGGAGRTSPGGRTSPEARGRRSPILLPKGLLAPEAGRADGGTGDSSPSPGSSLPSPLSDPRREPMNIYNLIAIIRDQIKHLQAAVDRTTELSRQRIASQELGPAVDKDKEALMEEILKLKSLLSTKREQITTLRTVLKANKQTAEVALANLKSKYENEKAMVTETMMKLRNELKALKEDAATFSSLRAMFATRCDEYITQLDEMQRQLAAAEDEKKTLNSLLRMAIQQKLALTQRLELLELDHEQTRRGRAKAAPKTKPATPSVSHTCACASDRAEGTGLANQVFCSEKHSIYCD
  stoichiometry N: 2
